The target of assay [1] is Lipo-E6_(18)-C: C-terminal domain of HPV18 E6 (residues 82-158) linked via the N-terminus to His-tagged lipoyl domain (HPV18) (UniProt P06463). The assay can be described thus: stopped-flow fluorescence kinetics; association: PDZ variant (6-20 µM) mixed with Lipo-E6_(18)-C (2 µM), Trp342 emission; 10°C, 50 mM potassium phosphate pH 7.5, 240 µM β-mercaptoethanol; kon from kobs versus PDZ concentration; Kd = koff/kon.

Assay [2] shares this target. Kind of assay: stopped-flow fluorescence kinetics; displacement: pre-formed complex of PDZ variant (0.75 µM) and Lipo-E6_(18)-C (0.75 µM) mixed with dansylated peptide (20, 150 and 300 µM); 10°C, 50 mM potassium phosphate pH 7.5, 240 µM β-mercaptoethanol; koff = kobs at high peptide.
The target of assay [3] is PDZbody15 (E6AP helix, Gly-Ser linker of 10 residues, PDZϕ9) (UniProt Q12959). Kind of assay: ITC; full-length HPV16 E6 titrated into the PDZ variant or PDZbody; ITC200, 25°C, 20 mM sodium phosphate pH 6.8, 200 mM NaCl, 1 mM TCEP; single-site model. (In general: Isothermal titration calorimetry measures the heat released or taken up as one component is titrated into another.)

For assay [4], the target named is PDZbody20 (E6AP helix, Gly-Ser linker of 15 residues, PDZϕ9) (UniProt Q12959). Described as above.
Assay [5] concerns the target PDZbody25 (E6AP helix, Gly-Ser linker of 20 residues, PDZϕ9) (UniProt Q12959). The description is as above.
In assay [6] the target is PDZbody8 (E6AP helix, Gly-Ser linker of 3 residues, PDZϕ9) (UniProt Q12959). The description is as above.
Assay [7] addresses PDZϕ9 (SAP97 PDZ2 pseudo wild type with L391F, K392M) (human) (UniProt Q12959). Described as above.
Assay [8] has as its target pseudo wild type SAP97 PDZ2 (residues 311-407; I342W, C378A) (human) (UniProt Q12959). The description is as above.
Assay [9] concerns the target T1, pseudo wild type SAP97 PDZ2 (residues 311-407; I342W, C378A) (human, UniProt Q12959 311-407, I342W | C378A).
T1 construct: SAP97 (also called human Dlg), second PDZ domain (PDZ2), residues 311-407; Residues of the thrombin site probably stay at the N-terminus after cleavage (surmised); also called pWT; source: E. coli BL21(DE3) pLysS, purified (nickel-Sepharose, thrombin digestion, nickel reload, Source 30Q); not shown: His tag, N-terminal, cleaved; lipoyl protein domain (Bacillus stearothermophilus), N-terminal, …
T1 sequence (looked up): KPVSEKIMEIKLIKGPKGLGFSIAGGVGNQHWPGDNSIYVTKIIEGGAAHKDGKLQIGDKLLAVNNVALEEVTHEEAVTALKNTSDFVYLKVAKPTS
Kind of assay: stopped-flow fluorescence kinetics; association: PDZ variant (6-20 µM) mixed with Lipo-E6_(18)-C (2 µM), Trp342 emission; 10°C, 50 mM potassium phosphate pH 7.5, 240 µM β-mercaptoethanol; kon from kobs versus PDZ concentration; Kd = koff/kon. Particulars: both partners purified.

Assay [10] concerns the target T1, pseudo wild type SAP97 PDZ2 (residues …). The assay can be described thus: stopped-flow fluorescence kinetics; displacement: pre-formed complex of PDZ variant (0.75 µM) and Lipo-E6_(18)-C (0.75 µM) mixed with dansylated peptide (20, 150 and 300 µM); 10°C, 50 mM potassium phosphate pH 7.5, 240 µM β-mercaptoethanol; koff = kobs at high peptide. Conditions: both partners purified.

What is called Kd is the equilibrium constant for the complex coming apart. Read a high Kd as lower affinity. In general, kon refers to a measure of how fast the partners come together. Read a high kon as fast association. In general, koff refers to the rate constant with which the complex falls apart. Read a low koff as slow dissociation. The stoichiometry N is the number of molecules, sites or subunits per partner or assembly.

As for “PDZϕ1 (SAP97 PDZ2 pseudo wild type with E385R) (from UniProt Q12959 311-407) (designed binder)”, in [1], the Kd came to 920 nM and the kon was 8.2e+06 M⁻¹ s⁻¹. In assay [2], this molecule had a koff of 7.5 s⁻¹.

In assay [1], “PDZϕ2 (SAP97 PDZ2 pseudo wild type with E385H, L391F, K392Q) (from UniProt Q12959 311-407) (designed binder)” registered a Kd of 260 nM and a kon of 5.9e+06 M⁻¹ s⁻¹. In assay [2], the dissociation rate constant (koff) amounted to 1.5 s⁻¹.

On to “PDZϕ3 (SAP97 PDZ2 pseudo wild type with L391F, K392A) (from UniProt Q12959 311-407) (designed binder)”, for which, in assay [1], the Kd came out at 160 nM and the association rate constant (kon) was 4.6e+06 M⁻¹ s⁻¹. In [2], this molecule registered a dissociation rate constant (koff) of 0.75 s⁻¹.

Regarding “PDZϕ4 (SAP97 PDZ2 pseudo wild type with E385H, K392R) (from UniProt Q12959 311-407) (designed binder)”, in assay [1], the dissociation constant Kd is 600 nM and the kon amounted to 8.5e+06 M⁻¹ s⁻¹. Besides, in [2], the off-rate constant (koff) came out at 5.1 s⁻¹.

In assay [1], “PDZϕ5 (SAP97 PDZ2 pseudo wild type with E385H, K392T) (from UniProt Q12959 311-407) (designed binder)” showed a Kd of 780 nM and a kon of 4.9e+06 M⁻¹ s⁻¹. In [2], this molecule registered a koff of 3.8 s⁻¹.

In assay [1], “PDZϕ6 (SAP97 PDZ2 pseudo wild type with E385K, K392Q) (from UniProt Q12959 311-407) (designed binder)” had a Kd of 2500 nM and an association rate constant (kon) of 4e+06 M⁻¹ s⁻¹. For the same molecule, in assay [2], the off-rate constant (koff) was 10.2 s⁻¹.

Consider “PDZϕ7 (SAP97 PDZ2 pseudo wild type with E385K, K392R) (from UniProt Q12959 311-407) (designed binder)”, for which, in assay [1], the Kd was 610 nM and the kon turned out to be 8.9e+06 M⁻¹ s⁻¹. Further, in [2], the off-rate constant (koff) was determined as 5.5 s⁻¹.

In [1], “PDZϕ8 (SAP97 PDZ2 pseudo wild type with E385T) (from UniProt Q12959 311-407) (designed binder)” gave a dissociation constant (Kd) of 660 nM and a kon of 5.8e+06 M⁻¹ s⁻¹. In addition, in assay [2], the off-rate (koff) came to 3.8 s⁻¹.

In assay [1], “PDZϕ9 (SAP97 PDZ2 pseudo wild type with L391F, K392M) (from UniProt Q12959 311-407) (designed binder)” displayed a dissociation constant Kd of 93 nM and a kon of 5.9e+06 M⁻¹ s⁻¹. Besides, the koff in assay [2] worked out at 0.55 s⁻¹.

With “full-length HPV16 E6 (from UniProt P03126 1-158) (natural protein)”, the dissociation constant (Kd) in assay [3] turned out to be 160 nM; in assay [4], 65 nM; in assay [5], 79 nM; in assay [6] it was 200 nM; in assay [7] it was 910 nM; in assay [8] it was 6300 nM. Also, the dH in assay [3] was -16.5 kcal/mol; in [4], -17 kcal/mol; in [5] it was -19.8 kcal/mol; in assay [6], -19.1 kcal/mol; in assay [7], -9.9 kcal/mol; in [8] it was -4.6 kcal/mol. In addition, the stoichiometry N is 0.93 in [3]; 0.94 in [4]; 0.92 in [5]; 0.76 in assay [6]; 0.75 in assay [7]; 0.75 in [8].

B1: Lipo-E6_(18)-C: C-terminal domain of HPV18 E6 (residues 82-158) linked via the N-terminus to His-tagged lipoyl domain (domain or fragment)
chain: SDSVYGDTLEKLTNTGLYNLLIRCLRCQKPLNPAEKLRHLNEKRRFHNIAGHYRGQCHSCCNRARQERLQRRRETQV
notes: HPV18 E6 C-terminal domain, residues 82-158, UniProtKB P06463; A thrombin cleavage site (LVPRGS) stands between the lipoyl domain and the E6 domain and was not cut; also called HPV18 E6 C-terminal domain; source: E. coli BL21(DE3) pLysS, purified (nickel-Sepharose, Source 30Q; thrombin digestion omitted); not shown: His tag, N-terminal, kept; lipoyl protein domain (Bacillus stearothermophilus), …
In assay [9], B1 showed a Kd of 540 nM and an association rate constant (kon) of 6.2e+06 M⁻¹ s⁻¹. In assay [10], this molecule displayed a koff of 3.3 s⁻¹.
